Assay: soluble on expression in E. coli; label from the status in PepcDB or PDB records

Sequence	soluble on expression in E. coli
MFEVPITLTNRKFAQRRKLKYQYINYISRRFDRISKKSTTTDSLPTPENSAAENNDEEEGQNSEAGTYRRSVLQQKKRRRERHWRSVVGEIYSTTESETDSQEEETEEGGEHDTGIDKEDSDEERKFWKKYEKPEKSFEIWRTVSSQNKQPINKQKMTYHNFKKIEKIPLRKMEIPLLHCTKENKLYFQSISRGLEPLKTSTSEVRNYRTRHIVTLTDLLHLNVSRHNWSLAYKIFATLIRIPGVQIKSLWGIGVEILDNLSNSSSGLDFLQWMCQIYSSKSRFVQNINYRSIVPPFQTGSRTHTAKFAITYLWSSLINCQKSMEPSSNIIDKPFDTENDLLQELIDKISEWVLTPPFMEDAEVWFIYASCHLLKADTLSRQFVNDNKNNDLIGLDRDIKINQVIKHIHYVRTFLKICLDKGGFAVPSRLIENQLKSFESRLYGEAQDIQERDVANVYDSIDNSSVENSFGDVYETNAEFLDTQLMDLSPEDNGLDEMHYSDEDSSE	not soluble
MFFQSIYQMMSAGTDLNINIRRTDGKLSVAVIPKRTTLKDEAGQAIVPLILNGTPMELDGQFLQIITTPLQKAQGILTNLETFEQQARLAATQGKAAGTANDKKTKEAREKQEKMEKLLKRAEEAFTAGRYSEATTCFRQAKVLADTDRQKQIEARIQEVQKESSQGCLFPETDTQPLPQQPPANGTANGNRPDGQMRMFTSQPPQQPVQQAIPQPVQQPVPRPQIVQPQPVPQYYPGTPQPQPMYEGYCRNPANGSPQQTAEQPQTYFLQPGGQYPQTQPWQQPQPVPLQPQATVIQTTRENTGREYQSPPQPAAEALTFDKDDESDRELLREDPYAEYIDFPQECRMKDETQAELICC	not soluble
MFFSALKSFLSRYITVWRNVWAVRDQLKPPKRTAEEQAFLPAHLELTDTPVSAAPKWAARFIMAFALLALLWSWFGKIDIVAAASGKTVSGGRSKTIQPLETAVVKAVHVRDGQHVKQGETLAELEAVGTDSDVVQSEQALQAAQLSKLRYEAVLAALESRTVPHIDMAQARSLGLSDADVQSAQVLAQHQYQAWAAQDAQLQSALRGHQAELQSAKAQEQKLVSVGAIEQQKTADYRRLRADNFISEHAFLEQQSKSVSNWNDLESTRGQMRQIQAAIAQAEQNRVLNTQNLKRDTLDALRQANEQIDQYRGQTDKAKQRQQLMTIQSPADGTVQELATYTVGGVVQAAQKMMVIAPDDDKMDVEVLVLNKDIGFVEQGQDAVVKIESFPYTRYGYLTGKVKSVSHDAVSHEQLGLVYTAVVSLDKHTLNIDGKAVNLTAGMNVTAEIKTGKRRVLDYLLSPLQTKLDESFRER	not soluble
MFGLPMYNVWRAEQAGKAEFSKAEQNRRIKIEEAKANLEAEKLNAKAEIERAKGAAEAIRIENNSLTPTYIQYLWVRQQGSLNDKTVIYIPTEANLPLLEAGRTAGGLKRAECPTE	not soluble
MFGYPGGAVLDIYDALHTVGGIDHVLVRHEQAAVHMADGLARATGDVGVVLVTSGPGATNAITGIATAYMDSIPLVILSGQVATSLIGYDAFQECDMVGISRPVVKHSFLVKQTEDIPLVLKKAFWLAASGRPGPVVVDLPKDILNPAKKMPYAWPETVSMRSYNPTTSGHKGQIKRALQTLASAKKPVVYVGGGAISAACYAPLRHIIETFNLPVVSSLMGLGAFPATHRQSLGMLGMHGTYEANMTMHNADVIFAVGVRFDDRTTNNLAKYCPNATVLHIDIDPTSISKTVNADIPVVGDARLVLEQMLELLAQDAPSQPQDDIRDWWQQIESWRARQCLKYDAESESIKPQAVIETLWRLTKGDAYVTSDVGQHQMFAALYYPFDKPRRWINSGGLGTMGFGLPAALGVKMALPKEMVVCVTGDGSIQMNIQELSTALQYELPVLVLNLNNRYLGMVKQWQDMIYSGRHSQSYMQSLPDFVRLAEAYGHVGLQINRPDELESKLSEALEHVRNNRLVFVDVTVDGSEHVYPMQIRGGGMDEMWLSKTERT	not soluble
MFGYRSNVPKVRLTTDRLVVRLVHDRDAWRLADYYAENRHFLKPWEPVRDESHCYPSGWQARLGMINEFHKQGSAFYFGLFDPDEKEIIGVANFSNVVRGSFHACYLGYSIGQKWQGKGLMFEALTAAIRYMQRTQHIHRIMANYMPHNKRSGDLLARLGFEKEGYAKDYLLIDGQWRDHVLTALTTPDWTPGR	not soluble
MFISCIILINYSYIFGKNIRYLYEFKVIWKSNNSLILFFIEFDRNFMTIKFKLFKCRRLNILIELINIENYFRNGNILCFIFNIPSIPRNLLINVFLTSSNKVNISIQGLKLEHHHHHH	not soluble
MFKPELLSPAGTLKNMRYAFAYGADAVYAGQPRYSLRVRNNEFNHENLQLGINEAHALGKKFYVVVNIAPHNAKLKTFIRDLKPVVEMGPDALIMSDPGLIMLVREHFPEMPIHLSVQANAVNWATVKFWQQMGLTRVILSRELSLEEIEEIRNQVPDMEIEIFVHGALCMAYSGRCLLSGYINKRDPNQGTCTNACRWEYNVQEGKEDDVGNIVHKYEPIPVQNVEPTLGIGAPTDKVFMIEEAQRPGEYMTAFEDEHGTYIMNSKDLRAIAHVERLTKMGVHSLKIEGRTKSFYYCARTAQVYRKAIDDAAAGKPFDTSLLETLEGLAHRGYTEGFLRRHTHDDYQNYEYGYSVSDRQQFVGEFTGERKGDLAAVAVKNKFSVGDSLELMTPQGNINFTLEHMENAKGEAMPIAPGDGYTVWLPVPQDLELNYALLMRNFSGETTRNPHGK	soluble
MFKRLMMVALLVIAPLSAATAADQTNPYKLMDEAAQKTFDRLKNEQPQIRANPDYLRTIVDQELLPYVQVKYAGALVLGQYYKSATPAQRDAYFAAFREYLKQAYGQALAMYHGQTYQIAPEQPLGDKTIVPIRVTIIDPNGRPPVRLDFQWRKNSQTGNWQAYDMIAEGVSMITTKQNEWGTLLRTKGIDGLTAQLKSISQQKITLEEKK	not soluble
MFMIEVEIFPHRYLKASTTEKFLNKIYDLKTVERVVIHGQPLPKVITYGPARGLPVNHTERKIIHVKGVPVELTVMAGRFWITLSDDSELDKLDEICKEMFPFGYNLRVGKFLKDRPTVTDYIKYGEDGVFLINEMDRRLIGMVDPRSRMANSVTVVEKEEKEELEHHHHHH	soluble
MFNGEKVTLLEMLDAREQRAATQKELLETAPEASLLSATMNIPGEVKNSPTLTAVFLEVIDEVEQQLLDQVPIVNFYRNEKTGPEYYLAVSLAPQELKQRMVKIEETHPYGRLVDLDVLWGNEELKSLHRGDLGLPPRRCFICQEVAKVCGRNRRHSLEAMQEKITEIILTRKEQPSE	not soluble
MFNKAIVIGGSMAGKFAAKALSTSFKEVIIIEASERWDGKSSRKRVPQSNHPHVLLKGGENAIEELFPNITDELIEAGSIVNNFTRDLKWHQFGLWKQPFIGEVHMIQQSRPLLEWNIQKRIHQISNITIKYETLVKGLLVDEKLNKVCGVKVKYLETDAQEEVHADLVVDASGFGSKSIEWLREYEIEVQEEKVRINLFYATKMFKLKENEELDCCNMLMSPSFPDNPYGVLIQTIEDNRYFVTFSGYANEKAPQTDDEFYDFAENLSISNVTDFLNKAVAISDIKTYKIPYQVRRRFDLTTNMPEGLLVVGDAHCRFDPVFGQGVSVAAMEARQLQLLLQGRKQLDKTFTQQFYKKAATIIETPWEMTTTEISRHPQLKRELTIKQKFQLWYTKQIYQLSATDSDVYIRLVKVMNLIRSPFHLFHPKVLLAVLLKRKKLEHHHHHH	not soluble
MFNYSTKDANLSNKTILVTGAGAGIGRTAALTYAQLGATVILLGKTVSKLEAVYDEIVALGLAEPAIIPLDLKGATKQNYIDMSSTISSQFGHLDGVLLNASILGELTPFTQMHEQVFNDVMKVNVTAQCLLAQTLIPTLLLAPNASLVFTSSGVGSQGRAYWGQYSISKFATEGMMQVIADEYEGSNLRTNAINPGATNTNMRSCAFPAEDKDELATPEDIMPLYVYLMSDDSLEINGQTLKAQ	not soluble
MFPEILNNEKLRLENIKKIYESSKSGYESAKQLYEQQVNNPEVSDEQKSENLEKLKESRGDLDNLQKKIVELQAKIENLSKLGGQQGNPFKKLF	not soluble
MFPIASRRILLNASVLPLRLCNRNFTTTRISYNVIQDLYLRELKDTKLAPSTLQDAEGNVKPWNPPQKPNLPELELQGPEALKAYTEQNVETAHVAKESEEGESEPIEEDWLVLDDAEETKESH	not soluble

From the DeepSol protein solubility set
